{
  "source": "patent US9187525B2",
  "about": "“Methods of treating ophthalmic diseases using NPR-B agonists” (Shire Orphan Therapies GmbH, dated 2015)",
  "binders": {"B1": {"name": "JAL-1078 (peptide)", "peptide": "Octanoyl-XF[dR]LP[NMeL]DRI-NH2", "modifications": "not fully specified (some residues); printed as Occ-pip-Phe-arg-Leu-Pro-Nml-Asp-Arg-Ile-NH2"}, "B2": {"name": "JAL-1077 (peptide)", "peptide": "Octanoyl-X[NMeF][dR]LP[NMeL]DRI-NH2", "modifications": "not fully specified (some residues); printed as Occ-pip-Nmf-arg-Leu-Pro-Nml-Asp-Arg-Ile-NH2"}, "B3": {"name": "JAL-1087 (peptide)", "peptide": "Octanoyl-XF[dR]L[Hyp][NMeL]DRI-NH2", "modifications": "not fully specified (some residues); printed as Occ-pip-Phe-arg-Leu-Hyp-Nml-Asp-Arg-Ile-NH2"}},
  "note": "Numbered stars: 1 amine (or outer) side, 2 acyl side, 3 side chain; on linkers, the order of the positions; unused ones are H or OH. Square brackets hold non-standard residues; d marks the D form. * marks the point of attachment. cDR = (S)-2-((S)-3-(carboxymethyl)-2-oxopiperazin-1-yl)-5-guanidinopentanoic acid, N=C(N)NCCC[C@@H](C(=O)[*:2])N1CCN([*:1])[C@@H](CC(=O)[*:3])C1=O; Bhp = (2S,4R)-4-(benzyloxy)pyrrolidine-2-carboxylic acid, O=C([C@@H]1C[C@@H](OCc2ccccc2)CN1[*:1])[*:2]; ctb = (S)-2-amino-3-(tert-butylthio)propanoic acid, CC(C)(C)SC[C@@H](N[*:1])C(=O)[*:2]; Npl = (S)-4-methyl-2-(propylamino)pentanoic acid, CCCN([C@@H](CC(C)C)C(=O)[*:2])[*:1]; Sni = (S)-nipecotic acid, O=C([C@H]1CCCN([*:1])C1)[*:2]; Pro(trans-4-F) = O=C(O)[C@@H]1C[C@@H](F)CN1; Phe(4-Br) = N[C@@H](Cc1ccc(Br)cc1)C(=O)O; Phe(4-Cl) = N[C@@H](Cc1ccc(Cl)cc1)C(=O)O; Phe(4-Me) = Cc1ccc(C[C@H](N)C(=O)O)cc1; Hyp = O=C(O)[C@@H]1C[C@@H](O)CN1; NMeF = CN[C@@H](Cc1ccccc1)C(=O)O; dAgb = N=C(N)NCC[C@@H](N)C(=O)O; dAoc(2) = CCCCCC[C@@H](N)C(=O)O; dAgp = N=C(N)NC[C@@H](N)C(=O)O; Aoc(2) = CCCCCC[C@H](N)C(=O)O; NMeL = CN[C@@H](CC(C)C)C(=O)O; dNle = CCCC[C@@H](N)C(=O)O; dOrn = NCCC[C@@H](N)C(=O)O; dDab = NCC[C@@H](N)C(=O)O; dPip = O=C(O)[C@H]1CCCCN1; Octanoyl = CCCCCCCC(=O)*; Hexanoyl = CCCCCC(=O)*",
  "data": [
    {"target": "T1, natriuretic peptide receptor-B (human)", "T1 chain": "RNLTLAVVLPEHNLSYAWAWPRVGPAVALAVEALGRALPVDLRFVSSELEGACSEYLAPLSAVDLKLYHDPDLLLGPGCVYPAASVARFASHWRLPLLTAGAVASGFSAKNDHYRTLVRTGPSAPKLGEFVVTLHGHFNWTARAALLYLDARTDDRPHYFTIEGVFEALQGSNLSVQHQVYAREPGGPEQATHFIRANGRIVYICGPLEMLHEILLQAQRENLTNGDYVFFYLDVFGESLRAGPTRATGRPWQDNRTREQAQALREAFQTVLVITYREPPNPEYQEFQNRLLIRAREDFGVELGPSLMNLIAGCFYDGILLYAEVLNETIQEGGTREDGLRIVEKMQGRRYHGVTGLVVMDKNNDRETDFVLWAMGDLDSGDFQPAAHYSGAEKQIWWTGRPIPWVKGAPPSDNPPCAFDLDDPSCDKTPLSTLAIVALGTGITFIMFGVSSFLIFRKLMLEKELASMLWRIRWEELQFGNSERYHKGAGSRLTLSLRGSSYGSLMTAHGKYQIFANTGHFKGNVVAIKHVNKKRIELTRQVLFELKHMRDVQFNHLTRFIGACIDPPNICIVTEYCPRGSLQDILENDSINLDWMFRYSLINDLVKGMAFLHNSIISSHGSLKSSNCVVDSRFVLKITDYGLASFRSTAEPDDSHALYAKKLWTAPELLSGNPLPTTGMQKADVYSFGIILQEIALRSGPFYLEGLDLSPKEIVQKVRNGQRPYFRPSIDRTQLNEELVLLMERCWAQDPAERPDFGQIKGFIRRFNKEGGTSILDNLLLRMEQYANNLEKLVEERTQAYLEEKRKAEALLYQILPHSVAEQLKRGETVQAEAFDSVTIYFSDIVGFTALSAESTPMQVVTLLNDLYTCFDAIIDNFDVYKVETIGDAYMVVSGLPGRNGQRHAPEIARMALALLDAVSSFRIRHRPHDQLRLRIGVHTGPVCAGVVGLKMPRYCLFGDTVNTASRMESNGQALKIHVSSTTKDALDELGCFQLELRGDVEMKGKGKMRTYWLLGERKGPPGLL", "assay": "cell-based or functional assay", "units": {"EC50 group, cGMP in GTM-3 cells": "µM"}, "values": [
      {"binder": "B1", "EC50 group, cGMP in GTM-3 cells": "≤ 1"},
      {"binder": "Hexanoyl-G[dA]FGLKLDRISG-NH2", "note": "[JAL-0539]", "EC50 group, cGMP in GTM-3 cells": "≤ 5"},
      {"binder": "Octanoyl-[dA]F[dK]L[Hyp][NMeL]DRI-NH2", "note": "[JAL-1060]", "EC50 group, cGMP in GTM-3 cells": "≤ 1"},
      {"binder": "Octanoyl-[dA]FGL[Pro(trans-4-F)]LDRI-NH2", "note": "[JAL-1115]", "EC50 group, cGMP in GTM-3 cells": "≤ 5"},
      {"binder": "Octanoyl-[dA]F[dR]L[Pro(trans-4-F)]LDRI-NH2", "note": "[JAL-1114]", "EC50 group, cGMP in GTM-3 cells": "≤ 5"},
      {"binder": "Octanoyl-[dA]F[dK]LPLDRI-NH2", "note": "[JAL-1030]", "EC50 group, cGMP in GTM-3 cells": "≤ 5"},
      {"binder": "Octanoyl-[dA][NMeF][dR]LP[NMeL]DRI-NH2", "note": "[JAL-1076]", "EC50 group, cGMP in GTM-3 cells": "≤ 5"},
      {"binder": "Ac-[Aoc(2)][dA][dA]FGLPLDRI-NH2", "note": "[JAL-1033]", "EC50 group, cGMP in GTM-3 cells": "≤ 5"},
      {"binder": "Octanoyl-[dA]F[dK]LP[NMeL]DRI-NH2", "note": "[JAL-1065]", "EC50 group, cGMP in GTM-3 cells": "≤ 5"},
      {"binder": "Octanoyl-[dA][Phe(4-Me)][dL]L[Hyp]LDRI-NH2", "note": "[JAL-1051]", "EC50 group, cGMP in GTM-3 cells": "≤ 5"},
      {"binder": "Octanoyl-[dA]F[dR]L[Hyp]LDRI-NH2", "note": "[JAL-1047]", "EC50 group, cGMP in GTM-3 cells": "≤ 1"},
      {"binder": "Octanoyl-[dA]F[dDab]LPLDRI-NH2", "note": "[JAL-1120]", "EC50 group, cGMP in GTM-3 cells": "≤ 5"},
      {"binder": "Octanoyl-[dA]F[dH]LPLDRI-NH2", "note": "[JAL-1032]", "EC50 group, cGMP in GTM-3 cells": "≤ 5"},
      {"binder": "Octanoyl-[dA]F[dAgb]LPLDRI-NH2", "note": "[JAL-1121]", "EC50 group, cGMP in GTM-3 cells": "≤ 5"},
      {"binder": "Octanoyl-[dA]F[dOrn]L[Hyp][NMeL]DRI-NH2", "note": "[JAL-1061]", "EC50 group, cGMP in GTM-3 cells": "≤ 1"},
      {"binder": "B2", "EC50 group, cGMP in GTM-3 cells": "≤ 1"},
      {"binder": "Hexanoyl-G[dA]FGLKLDRISA-NH2", "note": "[JAL-0538]", "EC50 group, cGMP in GTM-3 cells": "≤ 5"},
      {"binder": "Octanoyl-[dPip]FGLPLDRI-NH2", "note": "[JAL-1035]", "EC50 group, cGMP in GTM-3 cells": "≤ 15"},
      {"binder": "B3", "EC50 group, cGMP in GTM-3 cells": "≤ 1"},
      {"binder": "Octanoyl-[dA]F[dR]L[Hyp][NMeL]DRI-NH2", "note": "[JAL-1086]", "EC50 group, cGMP in GTM-3 cells": "≤ 1"},
      {"binder": "Octanoyl-[dA]F[dAgp]LPLDRI-NH2", "note": "[JAL-1122]", "EC50 group, cGMP in GTM-3 cells": "≤ 5"},
      {"binder": "Octanoyl-[dA]FGLP[Npl]DRI-NH2", "note": "[JAL-1045]", "EC50 group, cGMP in GTM-3 cells": "≤ 15"},
      {"binder": "Octanoyl-[dA]F[dK]LP[NMeL]ARI-NH2", "note": "[JAL-1068]", "EC50 group, cGMP in GTM-3 cells": "≤ 15"},
      {"binder": "Octanoyl-[dP]F[dL]L[Hyp]LDRI-NH2", "note": "[JAL-1053]", "EC50 group, cGMP in GTM-3 cells": "≤ 1"},
      {"binder": "Octanoyl-[Sni]F[dL]LP[NMeL]DRI-NH2", "note": "[JAL-1040]", "EC50 group, cGMP in GTM-3 cells": "≤ 1"},
      {"binder": "Octanoyl-[dA]F[dR]LP[NMeL]DRI-NH2", "note": "[JAL-1075]", "EC50 group, cGMP in GTM-3 cells": "≤ 5"},
      {"binder": "XXAFGLKLDRIS (Hex-Ebe-ala-Phe-Gly-Leu-Lys-Leu-Asp-Arg-Ile-Ser-NH2)", "note": "[JAL-0540]", "EC50 group, cGMP in GTM-3 cells": "≤ 15"},
      {"binder": "Octanoyl-[dA][Phe(4-Cl)][dL]L[Hyp][NMeL]DRI-NH2", "note": "[JAL-1043]", "EC50 group, cGMP in GTM-3 cells": "≤ 1"},
      {"binder": "Octanoyl-[dA]F[ctb]L[Hyp]LDRI-NH2", "note": "[JAL-1029]", "EC50 group, cGMP in GTM-3 cells": "≤ 5"},
      {"binder": "Octanoyl-[dA]F[dR]L[Hyp]LDRI-NH2", "note": "[JAL-1156_02]", "EC50 group, cGMP in GTM-3 cells": "≤ 5"},
      {"binder": "Octanoyl-[dA]F[dL]LP[NMeL]DRI-NH2", "note": "[JAL-1039]", "EC50 group, cGMP in GTM-3 cells": "≤ 1"},
      {"binder": "Octanoyl-[Sni]F[dL]L[Hyp][NMeL]DRI-NH2", "note": "[JAL-1041]", "EC50 group, cGMP in GTM-3 cells": "≤ 1"},
      {"binder": "Octanoyl-[dA]F[dR]LPLDRI-NH2", "note": "[JAL-1031]", "EC50 group, cGMP in GTM-3 cells": "≤ 5"},
      {"binder": "Octanoyl-[dA]FGL[Bhp]LDRI-NH2", "note": "[JAL-1038]", "EC50 group, cGMP in GTM-3 cells": "≤ 15"},
      {"binder": "Octanoyl-[dA]F[dD]L[Hyp]LDRI-NH2", "note": "[JAL-1048]", "EC50 group, cGMP in GTM-3 cells": "≤ 15"},
      {"binder": "Octanoyl-[dA][Phe(4-Cl)][dL]L[Hyp]LDRI-NH2", "note": "[JAL-1050]", "EC50 group, cGMP in GTM-3 cells": "≤ 1"},
      {"binder": "Octanoyl-[dA][Phe(4-Br)][dR]L[Hyp]LDRI-NH2", "note": "[JAL-1116]", "EC50 group, cGMP in GTM-3 cells": "≤ 1"},
      {"binder": "Octanoyl-[dPip]F[dL]L[Hyp]LDRI-NH2", "note": "[JAL-1054]", "EC50 group, cGMP in GTM-3 cells": "≤ 1"},
      {"binder": "Octanoyl-[dA][NMeF][dR]L[Hyp][NMeL]DRI-NH2", "note": "[JAL-1085]", "EC50 group, cGMP in GTM-3 cells": "≤ 1"},
      {"binder": "Octanoyl-[dA]F[dL]L[Hyp][NMeL]DRI-NH2", "note": "[JAL-1042]", "EC50 group, cGMP in GTM-3 cells": "≤ 1"},
      {"binder": "Octanoyl-[dA][NMeF][dL]L[Hyp]LDRI-NH2", "note": "[JAL-1052]", "EC50 group, cGMP in GTM-3 cells": "≤ 1"},
      {"binder": "Ac-[dAoc(2)][dA][dA]FGLPLDRI-NH2", "note": "[JAL-1034]", "EC50 group, cGMP in GTM-3 cells": "≤ 5"},
      {"binder": "Octanoyl-[dA]F[dNle]L[Hyp][NMeL]DRI-NH2", "note": "[JAL-1044]", "EC50 group, cGMP in GTM-3 cells": "≤ 1"},
      {"binder": "Octanoyl-[dA]FGLPL[cDR]I-NH2", "note": "[JAL-1037]", "EC50 group, cGMP in GTM-3 cells": "≤ 15"}
    ]}
  ]
}
